In patent US20160138027A1 (Stanford University, published 2016):

Columns and labels:
LRS = target: T1, LRS (human, UniProt Q9P2J5 1-1176); assay: FLAG co-immunoprecipitation from HEK293T lysates, western blot
T1 construct: Endogenous protein probed in the co-immunoprecipitate; also called Leucyl tRNA synthetase

Rictor = target: T2, Rictor (human, UniProt Q6R327 1-1708); assay: FLAG co-immunoprecipitation from cross-linked HEK293T lysates, western blot (FIG. 6C)
T2 construct: Endogenous protein probed in the co-immunoprecipitate
T2 sequence (Q6R327 whole entry): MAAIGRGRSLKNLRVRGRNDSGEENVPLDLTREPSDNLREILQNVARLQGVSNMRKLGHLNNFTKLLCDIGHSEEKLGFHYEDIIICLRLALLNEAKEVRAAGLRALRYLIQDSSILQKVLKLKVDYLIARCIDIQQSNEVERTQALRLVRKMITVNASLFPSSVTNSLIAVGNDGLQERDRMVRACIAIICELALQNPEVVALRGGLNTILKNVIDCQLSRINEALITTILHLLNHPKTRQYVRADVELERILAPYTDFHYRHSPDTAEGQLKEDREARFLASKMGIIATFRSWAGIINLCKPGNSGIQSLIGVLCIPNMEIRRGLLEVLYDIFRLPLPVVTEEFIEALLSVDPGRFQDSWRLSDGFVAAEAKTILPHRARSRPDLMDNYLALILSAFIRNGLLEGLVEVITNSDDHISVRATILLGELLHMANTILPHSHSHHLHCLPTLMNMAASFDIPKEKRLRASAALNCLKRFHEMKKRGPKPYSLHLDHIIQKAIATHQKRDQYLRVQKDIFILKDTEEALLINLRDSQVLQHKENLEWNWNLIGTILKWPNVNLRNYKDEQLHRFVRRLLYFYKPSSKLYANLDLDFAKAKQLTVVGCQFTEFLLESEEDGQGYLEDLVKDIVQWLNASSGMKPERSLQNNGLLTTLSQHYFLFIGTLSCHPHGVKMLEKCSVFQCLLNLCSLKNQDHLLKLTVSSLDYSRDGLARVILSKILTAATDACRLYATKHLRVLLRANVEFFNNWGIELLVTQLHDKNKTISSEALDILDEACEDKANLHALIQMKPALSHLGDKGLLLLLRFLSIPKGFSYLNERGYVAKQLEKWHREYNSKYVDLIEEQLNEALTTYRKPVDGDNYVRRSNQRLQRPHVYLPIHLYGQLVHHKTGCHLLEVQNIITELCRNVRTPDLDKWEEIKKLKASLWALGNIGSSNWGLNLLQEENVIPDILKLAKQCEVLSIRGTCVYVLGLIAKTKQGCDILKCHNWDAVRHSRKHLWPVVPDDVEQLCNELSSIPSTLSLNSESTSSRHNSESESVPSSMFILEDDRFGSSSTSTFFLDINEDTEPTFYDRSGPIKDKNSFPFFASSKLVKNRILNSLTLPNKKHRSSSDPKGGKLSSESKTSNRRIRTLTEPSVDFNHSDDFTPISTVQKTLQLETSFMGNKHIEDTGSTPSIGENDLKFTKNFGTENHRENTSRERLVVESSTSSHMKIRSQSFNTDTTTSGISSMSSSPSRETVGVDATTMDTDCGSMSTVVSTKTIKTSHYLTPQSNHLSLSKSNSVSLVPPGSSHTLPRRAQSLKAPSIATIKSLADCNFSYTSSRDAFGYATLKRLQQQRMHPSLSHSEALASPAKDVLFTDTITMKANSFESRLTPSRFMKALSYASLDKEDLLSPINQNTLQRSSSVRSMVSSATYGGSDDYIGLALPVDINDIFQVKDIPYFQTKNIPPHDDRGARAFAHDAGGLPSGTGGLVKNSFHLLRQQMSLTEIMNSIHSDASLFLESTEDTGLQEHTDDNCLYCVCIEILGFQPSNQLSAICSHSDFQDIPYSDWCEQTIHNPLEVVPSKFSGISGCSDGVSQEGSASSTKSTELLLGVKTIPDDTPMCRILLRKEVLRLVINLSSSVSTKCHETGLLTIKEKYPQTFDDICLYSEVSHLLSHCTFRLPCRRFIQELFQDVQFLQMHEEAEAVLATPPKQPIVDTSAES
Protocol: (§1) HEK293T cells were transfected with either MORTOR-3×FLAG or FLAG alone for 22 or 42 hours later. Cells were then starved of amino acids and serum for 4 hours and re-stimulated with amino acids for 5 minutes or left untreated. Cells were cross-linked and harvested and FLAG immunoprecipitation was used to test for interactions with endogenous proteins. […] HEK293T cells were transfected with either MORTOR-3×FLAG, MORTOR-1×FLAG (CMV), or FLAG only and treated as in FIG. 6A.
(§2) One day before transfection, 2,000,000 HEK293T cells were plated in 10 cm culture dishes. The cells were transfected with 2 μg of cDNA expression vectors using Lipofectamine 2000 (Life Technologies). Four hours after transfection, the cells were washed and incubated in DMEM with 10% FBS without antibiotics for 18 hours. When amino acid sensitivity was investigated, cells were transfected for 18 or 38 hours followed by 4 hours of amino acid starvation. The cells were then stimulated with amino acid for 7 minutes. The cells were incubated in Triton X-100 lysis buffer (1% Triton X-100, 40 mM HEPES pH 7.4, 2 mM EDTA, 200 mM NaCl, phosSTOP and protease inhibitor cocktail (Roche)) for 1 hour, followed by sonication at 4° C. For in-cell crosslinking experiments, DSP was used as previously described (Sancak, Y., et al. (2008) “The Rag GTPases Bind Raptor and Mediate Amino Acid Signaling to MTORC1,” Science, 320:1496-1501) prior to cell lysis. The lysates were centrifuged at 20,000×g for 30 minutes. For immunoprecipitation, primary antibodies were cross-linked to Protein G beads (Life technologies) using DMP (Thermo scientific). For anti-FLAG-immunoprecipitation, the FLAG-M2 affinity gel (Life technologies) was used. The cleared lysates were incubated with the beads at 4° C. for 2 hours or overnight. The beads were washed five times with ice-cold lysis buffer. Immunoprecipitated proteins were denatured in the SDS sample buffer and separated by SDS-PAGE. The intensity of bands were quantified using ImageJ (NIH).

p62 = target: T3, p62 (human, UniProt Q13501 2-440); assay: as above
T3 construct: Endogenous protein probed with anti-p62 from BD Transduction Laboratories
Protocol: as §1, §2

ATP6V1A = target: T4, ATP6V1A (human, UniProt P38606 1-617); assay: as above
T4 construct: Endogenous protein probed in the co-immunoprecipitate
T4 sequence (P38606 whole entry): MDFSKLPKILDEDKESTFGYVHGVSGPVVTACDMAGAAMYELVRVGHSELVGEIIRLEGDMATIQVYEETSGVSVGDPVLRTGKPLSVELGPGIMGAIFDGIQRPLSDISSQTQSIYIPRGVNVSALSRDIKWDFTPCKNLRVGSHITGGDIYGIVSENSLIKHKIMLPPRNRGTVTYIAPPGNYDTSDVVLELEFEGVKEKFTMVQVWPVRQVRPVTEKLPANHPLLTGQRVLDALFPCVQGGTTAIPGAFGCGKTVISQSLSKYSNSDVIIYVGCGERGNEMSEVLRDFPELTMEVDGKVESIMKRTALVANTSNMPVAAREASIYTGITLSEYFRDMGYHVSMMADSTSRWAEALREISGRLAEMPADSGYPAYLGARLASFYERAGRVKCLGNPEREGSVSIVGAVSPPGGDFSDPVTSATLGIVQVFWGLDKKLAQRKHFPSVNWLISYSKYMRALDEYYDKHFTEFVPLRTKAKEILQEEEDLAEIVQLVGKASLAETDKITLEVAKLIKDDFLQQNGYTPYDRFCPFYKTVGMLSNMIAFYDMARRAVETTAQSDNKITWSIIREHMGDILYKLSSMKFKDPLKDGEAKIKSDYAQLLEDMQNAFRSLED
Protocol: as §1, §2

Measured: binding result

T1 sequence (Q9P2J5 whole entry): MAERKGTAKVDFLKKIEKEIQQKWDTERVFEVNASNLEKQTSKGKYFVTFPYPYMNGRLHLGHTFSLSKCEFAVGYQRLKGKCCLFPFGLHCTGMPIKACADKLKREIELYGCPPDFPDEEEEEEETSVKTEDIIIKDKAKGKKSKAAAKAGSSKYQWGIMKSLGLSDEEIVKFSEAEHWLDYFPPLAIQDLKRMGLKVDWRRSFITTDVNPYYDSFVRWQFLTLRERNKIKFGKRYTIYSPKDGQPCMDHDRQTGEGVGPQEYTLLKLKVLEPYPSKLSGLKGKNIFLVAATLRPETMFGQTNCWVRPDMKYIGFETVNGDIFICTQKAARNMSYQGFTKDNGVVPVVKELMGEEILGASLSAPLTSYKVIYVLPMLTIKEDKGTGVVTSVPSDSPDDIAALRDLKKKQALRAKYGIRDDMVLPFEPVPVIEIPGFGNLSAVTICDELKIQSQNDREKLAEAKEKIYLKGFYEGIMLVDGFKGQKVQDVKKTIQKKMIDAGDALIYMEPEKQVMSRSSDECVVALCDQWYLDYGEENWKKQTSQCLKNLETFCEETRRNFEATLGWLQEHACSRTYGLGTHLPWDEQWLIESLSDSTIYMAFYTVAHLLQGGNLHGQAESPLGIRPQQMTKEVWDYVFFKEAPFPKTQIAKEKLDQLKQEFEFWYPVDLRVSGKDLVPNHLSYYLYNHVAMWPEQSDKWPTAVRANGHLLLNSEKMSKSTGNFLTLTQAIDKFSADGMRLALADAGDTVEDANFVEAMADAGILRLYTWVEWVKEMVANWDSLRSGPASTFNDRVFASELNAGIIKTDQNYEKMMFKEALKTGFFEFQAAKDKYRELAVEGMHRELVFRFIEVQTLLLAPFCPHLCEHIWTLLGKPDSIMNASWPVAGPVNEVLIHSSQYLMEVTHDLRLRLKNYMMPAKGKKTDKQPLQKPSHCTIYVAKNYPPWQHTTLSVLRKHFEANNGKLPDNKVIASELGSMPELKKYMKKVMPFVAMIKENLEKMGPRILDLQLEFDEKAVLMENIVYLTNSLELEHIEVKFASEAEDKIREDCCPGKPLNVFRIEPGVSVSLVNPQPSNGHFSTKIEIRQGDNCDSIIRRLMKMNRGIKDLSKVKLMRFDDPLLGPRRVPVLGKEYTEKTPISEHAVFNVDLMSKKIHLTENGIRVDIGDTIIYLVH

B1: MORTOR-3×FLAG (receptor)
chain: MRPERPRPRGSAPGPMETPPWDPARNDSLPPTLTPAVPPYVKLGLTVVYTVFYALLFVFIYVQLWLVLRYRHKRLSYQSVFLFLCLFWASLRTVLFSFYFKDFVAANSLSPFVFWLLYCFPVCLQFFTLTLMNLYFTQVIFKAKSKYSPELLKYRLPLYLASLFISLVFLLVNLTCAVLVKTGNWERKVIVSVRVAINDTLFVLCAVSLSICLYKISKMSLANIYLESKGSSVCQVTAIGVTVILLYTSRACYNLFILSFSQNKSVHSFDYDWYNVSDQADLKNQLGDAGYVLFGVVLFVWELLPTTLVVYFFRVRNPTKDLTNPGMVPSHGFSPRSYFFDNPRRYDSDDDLAWNIAPQGLQGGFAPDYYDWGQQTNSFLAQAGTLQDSTLDPDKPSLG
notes: Expressed from pBMN-GPR137b-3×FLAG in HEK293T or HeLa cells and immunoprecipitated from lysates on FLAG-M2 gel; also called GPR137b-3×FLAG; MORTOR-FLAG; not shown: 3×FLAG tag
no binding: all assays above
